According to patent US5652340:

Target: T1, SATB1 80 kDa deltaSATB1 (bacterially produced) (Homo sapiens) (UniProt Q01826)
T1 sequence: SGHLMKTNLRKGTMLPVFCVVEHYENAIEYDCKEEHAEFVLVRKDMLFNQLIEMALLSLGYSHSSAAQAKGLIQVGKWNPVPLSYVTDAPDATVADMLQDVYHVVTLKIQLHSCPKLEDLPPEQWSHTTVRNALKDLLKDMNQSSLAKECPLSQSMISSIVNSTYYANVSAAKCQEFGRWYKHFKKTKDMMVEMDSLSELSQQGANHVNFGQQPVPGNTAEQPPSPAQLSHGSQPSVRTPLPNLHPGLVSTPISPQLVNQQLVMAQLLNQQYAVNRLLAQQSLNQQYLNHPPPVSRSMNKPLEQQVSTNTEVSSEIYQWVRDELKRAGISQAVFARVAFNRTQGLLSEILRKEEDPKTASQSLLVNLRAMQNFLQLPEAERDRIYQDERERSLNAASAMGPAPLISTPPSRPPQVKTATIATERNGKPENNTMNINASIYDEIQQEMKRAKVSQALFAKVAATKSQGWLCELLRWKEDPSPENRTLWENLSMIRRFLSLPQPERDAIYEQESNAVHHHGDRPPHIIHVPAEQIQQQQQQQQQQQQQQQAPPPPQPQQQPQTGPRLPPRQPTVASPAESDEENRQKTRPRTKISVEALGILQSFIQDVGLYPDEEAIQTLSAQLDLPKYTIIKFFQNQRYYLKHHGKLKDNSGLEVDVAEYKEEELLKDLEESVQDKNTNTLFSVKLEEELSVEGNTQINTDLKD
Assay: EMSA

TCTTTAATTTCTAATATATTTAGAATTC (double strand) [wild-type (25)2]
koff: 1 min⁻¹
